Data from US20130230528A1 (Novartis, published 2013).

How the values were obtained:
[1] = target: T1, human CD40 on the cell surface (normal B cells, B-CLL cells, EBV-transformed B cells, multiple myeloma cell … (human, UniProt P25942 20-277)); assay: cell-based or functional assay
[2] = target: T1, human CD40 on the cell surface (normal …); assay: cell-based or functional assay; remark: listed apart in the source
[3] = target: T2, human CD40, soluble / recombinant (ELISA and Biacore) (human, UniProt P25942 20-193); assay: Biacore (assay named in paragraph 181)
T2 construct: also called soluble CD40; recombinant CD40
T2 sequence (P25942 20-193): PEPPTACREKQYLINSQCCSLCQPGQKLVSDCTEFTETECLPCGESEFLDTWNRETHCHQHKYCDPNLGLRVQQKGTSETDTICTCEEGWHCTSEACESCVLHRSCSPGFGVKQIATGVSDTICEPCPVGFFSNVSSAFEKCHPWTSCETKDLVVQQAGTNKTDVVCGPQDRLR

[4] = target: T1, human CD40 on the cell surface (normal …); assay: cell-based or functional assay; remark: listed apart in the source

T1 sequence (P25942 20-277): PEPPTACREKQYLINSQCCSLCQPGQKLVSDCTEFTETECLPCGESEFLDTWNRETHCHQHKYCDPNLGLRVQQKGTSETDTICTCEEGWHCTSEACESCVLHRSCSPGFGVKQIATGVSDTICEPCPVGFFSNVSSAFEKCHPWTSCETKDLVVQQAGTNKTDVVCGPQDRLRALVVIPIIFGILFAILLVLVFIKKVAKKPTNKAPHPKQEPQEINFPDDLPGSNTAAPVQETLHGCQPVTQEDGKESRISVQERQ

B1: CD40L on transfected, formaldehyde-fixed CHO cells (ligand)
chain: MIETYNQTSPRSAATGLPISMKIFMYLLTVFLITQMIGSALFAVYLHRRLDKIEDERNLHEDFVFMKTIQRCNTGERSLSLLNCEEIKSQFEGFVKDIMLNKEETKKENSFEMQKGDQNPQIAAHVISEASSKTTSVLQWAEKGYYTMSNNLVTLENGKQLTVKRQGLYYIYAQVTFCSNREASSQAPFIASLCLKSPGRFERILLRAANTHSSAKPCGQQSIHLGGVFELQPGASVFVNVTDPSQVSHGTGFTSFGLLKL
- MCP-1 secretion, normal B cells, Donor 1, fold induction over background [1]: 5.5 fold
- MCP-1 secretion, normal B cells, Donor 3, fold induction over background [1]: 1.7 fold
- MIP-1β secretion, normal B cells, Donor 1, fold induction over background [1]: 2.2 fold
- MIP-1β secretion, normal B cells, Donor 2, fold induction over background [1]: 2.6 fold
- MIP-1β secretion, normal B cells, Donor 3, fold induction over background [1]: 17.8 fold
- hIL-6 secretion, normal B cells, Donor 1, fold induction over background [1]: 5.7 fold
- hIL-6 secretion, normal B cells, Donor 2, fold induction over background [1]: 3.8 fold
- hIL-6 secretion, normal B cells, Donor 3, fold induction over background [1]: 20.5 fold
- hIL-8 secretion, normal B cells, Donor 1, fold induction over background [1]: 7.7 fold
- hIL-8 secretion, normal B cells, Donor 2, fold induction over background [1]: 14.7 fold
- hIL-8 secretion, normal B cells, Donor 3, fold induction over background [1]: 49.3 fold
- hIL-10 secretion, normal B cells, Donor 1, fold induction over background [1]: 3.6 fold
- hIL-10 secretion, normal B cells, Donor 3, fold induction over background [1]: 3.6 fold
- hTNF-α secretion, normal B cells, Donor 1, fold induction over background [1]: 3.7 fold
- hTNF-α secretion, normal B cells, Donor 2, fold induction over background [1]: 4.8 fold
- hTNF-α secretion, normal B cells, Donor 3, fold induction over background [1]: 22.8 fold
- MCP-1 secretion, CLL cells, CLL #1, fold induction over background [2]: 5.5 fold
- hGM-CSF secretion, CLL cells, CLL #1, fold induction over background [2]: 7.6 fold
- hIL-8 secretion, CLL cells, CLL #1, fold induction over background [2]: 4 fold
- hIL-10 secretion, CLL cells, CLL #1, fold induction over background [2]: 9.2 fold
- hTNF-α secretion, CLL cells, CLL #1, fold induction over background [2]: 3.3 fold

B2: CHIR-12.12 fully human anti-CD40 monoclonal antibody (antibody, human IgG1, kappa, V domains shown)
VH: QVQLVESGGGVVQPGRSLRLSCAASGFTFSSYGMHWVRQAPGKGLEWVAVISYEESNRYHADSVKGRFTISRDNSKITLYLQMNSLRTEDTAVYYCARDGGIAAPGPDYWGQGTLVTVSS
VL: DIVMTQSPLSLTVTPGEPASISCRSSQSLLYSNGYNYLDWYLQKPGQSPQVLISLGSNRASGVPDRFSGSGSGTDFTLKISRVEAEDVGVYYCMQARQTPFTFGPGTKVDIRR
notes: Human IgG1 kappa from XenoMouse hybridoma; also called 153.8E2.D10.D6.12.12
- Kd [3]: 0.5 nM

B3: CHIR-5.9 fully human anti-CD40 monoclonal antibody (antibody, V domains shown)
VH: EVQLVQSGAEVKKPGESLKISCKGSGYSFTSYWIGWVRQMPGKGLEWMGIIYPGDSDTRYSPSFQGQVTISADKSISTAYLQWSSLKASDTAMYYCARGTAAGRDYYYYYGMDVWGQGTTVTVSS
VL: AIVMTQPPLSSPVTLGQPASISCRSSQSLVHSDGNTYLNWLQQRPGQPPRLLIYKFFRRLSGVPDRFSGSGAGTDFTLKISRVEAEDVGVYYCMQVTQFPHTFGQGTRLEIKR
notes: Human IgG1 kappa from XenoMouse hybridoma; also called mAb CHIR-5.9; 131.2F8.5.9
- Kd [3]: 12 nM

B4: soluble recombinant human CD40L (Alexis Corporation) (ligand)
chain: GDQNPQIAAHVISEASSKTTSVLQWAEKGYYTMSNNLVTLENGKQLTVKRQGLYYIYAQVTFCSNREASSQAPFIASLCLKSPGRFERILLRAANTHSSAKPCGQQSIHLGGVFELQPGASVFVNVTDPSQVSHGTGFTSFGLLKL
- CellTiter-Glo viability, fold induction by rhsCD40L, CLL subject M1 [4]: 3.1 fold
- CellTiter-Glo viability, fold induction by rhsCD40L, CLL subject M2 [4]: 2.9 fold
- CellTiter-Glo viability, fold induction by rhsCD40L, CLL subject M3 [4]: 1.9 fold
- CellTiter-Glo viability, fold induction by rhsCD40L, CLL subject M4 [4]: 2.3 fold
- CellTiter-Glo viability, fold induction by rhsCD40L, CLL subject M5 [4]: 3.5 fold
- CellTiter-Glo viability, fold induction by rhsCD40L, CLL subject M6 [4]: 2.6 fold
- CellTiter-Glo viability, fold induction by rhsCD40L, CLL subject M7 [4]: 3.8 fold
- CellTiter-Glo viability, fold induction by rhsCD40L, Normal B [4]: 3 fold
- cPARP flow cytometry, fold inhibition by rhsCD40L, CLL subject M1 [4]: 5.8 fold
- cPARP flow cytometry, fold inhibition by rhsCD40L, CLL subject M2 [4]: 2.6 fold
- cPARP flow cytometry, fold inhibition by rhsCD40L, CLL subject M3 [4]: 2.1 fold
- cPARP flow cytometry, fold inhibition by rhsCD40L, CLL subject M4 [4]: 3.2 fold
- cPARP flow cytometry, fold inhibition by rhsCD40L, CLL subject M5 [4]: 2.3 fold
- cPARP flow cytometry, fold inhibition by rhsCD40L, CLL subject M6 [4]: 0.9 fold
- cPARP flow cytometry, fold inhibition by rhsCD40L, CLL subject M7 [4]: 5.2 fold
- cPARP flow cytometry, fold inhibition by rhsCD40L, Normal B [4]: 3 fold
